Reference: patent US20240124563A1

Tests used:
[1] = target: monkey MSLN full-length protein on HEK293T cells (monkey); assay: FACS, HEK293T-monkey MSLN cells
[2] = target: human MSLN full-length protein, recombinant, on CHO-K1 or HEK293T cells (human) (UniProt Q13421); assay: competitive FACS on CHO-K1-human MSLN-2C8 cells vs Biotin-Tab142; competitor at 8 nM
[3] = target: human MSLN full-length protein on transfected cells (CHO-K1-hMSLN clones 2C8, 2D11, 2C5; HEK293T-hMSLN clones B8, 2A4, 2A7) (human) (UniProt Q13421); assay: FACS, CHO-K1-hMSLN-2C8 cells, antibody 4 nM
Sequence of human MSLN full-length protein on transfected cells (CHO-K1-hMSLN clones 2C8, 2D11, 2C5; HEK293T-hMSLN clones B8, 2A4, 2A7) (human) (Q13421 other isoform, or with tags, fused parts or gaps limits assumed): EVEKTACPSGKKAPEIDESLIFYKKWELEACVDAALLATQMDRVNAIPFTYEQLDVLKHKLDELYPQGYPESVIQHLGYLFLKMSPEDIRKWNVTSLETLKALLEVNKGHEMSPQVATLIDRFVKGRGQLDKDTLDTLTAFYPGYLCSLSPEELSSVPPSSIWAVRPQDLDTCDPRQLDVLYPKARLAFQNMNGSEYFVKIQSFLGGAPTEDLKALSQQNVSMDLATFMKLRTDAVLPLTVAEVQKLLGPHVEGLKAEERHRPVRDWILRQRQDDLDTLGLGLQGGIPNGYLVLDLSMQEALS

[4] = target: human MSLN protein endogenously expressed on tumor cells (Hela, OVCAR3) (human) (UniProt Q13421); assay: FACS, OVCAR3 cells, antibody 20 nM
Sequence of human MSLN protein endogenously expressed on tumor cells (Hela, OVCAR3) (human) (Q13421 other isoform, or with tags, fused parts or gaps): as the sequence (Q13421 other isoform, or with tags, fused parts or gaps limits assumed) above, with P14R counted along it

[5] = target: human MSLN protein endogenously expressed on tumor cells (Hela, OVCAR3) (human) (UniProt Q13421); assay: FACS, OVCAR3 cells, antibody 0.8 nM
[6] = target: human MSLN full-length protein, recombinant, on CHO-K1 or HEK293T cells (human) (UniProt Q13421); assay: FACS, HEK293T-hMSLN-B8 cells, antibody 0.2 nM
[7] = target: human MSLN full-length protein, recombinant, on CHO-K1 or HEK293T cells (human) (UniProt Q13421); assay: competitive FACS on CHO-K1-human MSLN-2C8 cells vs Biotin-Tab142; competitor at 1.6 nM
[8] = target: human MSLN full-length protein, recombinant, on CHO-K1 or HEK293T cells (human) (UniProt Q13421); assay: competitive FACS on CHO-K1-human MSLN-2C8 cells vs Biotin-Tab142; competitor at 0.8 nM
[9] = target: human MSLN protein endogenously expressed on tumor cells (Hela, OVCAR3) (human) (UniProt Q13421); assay: FACS, OVCAR3 cells
[10] = target: human MSLN protein endogenously expressed on tumor cells (Hela, OVCAR3) (human) (UniProt Q13421); assay: FACS, OVCAR3 cells, antibody 2 nM
[11] = target: monkey MSLN full-length protein on HEK293T cells (monkey); assay: FACS, HEK293T-monkey-MSLN cells, antibody 0.00128 nM
[12] = target: human MSLN full-length protein, recombinant, on CHO-K1 or HEK293T cells (human) (UniProt Q13421); assay: competitive FACS on CHO-K1-human MSLN-2C8 cells vs Biotin-Tab142; competitor at 0.00256 nM
[13] = target: human MSLN protein endogenously expressed on tumor cells (Hela, OVCAR3) (human) (UniProt Q13421); assay: FACS, OVCAR3 cells, antibody 100 nM
[14] = target: human MSLN full-length protein on transfected cells (CHO-K1-hMSLN clones 2C8, 2D11, 2C5; HEK293T-hMSLN clones B8, 2A4, 2A7) (human) (UniProt Q13421); assay: FACS, CHO-K1-hMSLN-2C8 cells, antibody 20 nM
[15] = target: chimeric human MSLN-R3 / chicken MSLN-R1-2 protein on HEK293T cells (clone A5) (chicken; human); assay: FACS, HEK293T-hR3/chickR1-2-A5 cells, antibody 20 nM
Sequence of chimeric human MSLN-R3 / chicken MSLN-R1-2 protein on HEK293T cells (clone A5) (chicken; human) (Q13421 495-614, change not shown): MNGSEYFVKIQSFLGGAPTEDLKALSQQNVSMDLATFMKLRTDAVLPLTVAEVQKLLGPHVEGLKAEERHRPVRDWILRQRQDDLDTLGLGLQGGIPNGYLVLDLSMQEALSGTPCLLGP

[16] = target: monkey MSLN full-length protein on HEK293T cells (monkey); assay: FACS, HEK293T-monkey-MSLN cells, antibody 0.16 nM
[17] = target: human MSLN full-length protein, recombinant, on CHO-K1 or HEK293T cells (human) (UniProt Q13421); assay: competitive FACS on CHO-K1-human MSLN-2C8 cells vs Biotin-Tab142; competitor at 0.32 nM
[18] = target: monkey MSLN full-length protein on HEK293T cells (monkey); assay: FACS, HEK293T-monkey-MSLN cells, antibody 100 nM
[19] = target: human MSLN protein endogenously expressed on tumor cells (Hela, OVCAR3) (human) (UniProt Q13421); assay: FACS, OVCAR3 cells, antibody 0.032 nM
[20] = target: human MSLN full-length protein, recombinant, on CHO-K1 or HEK293T cells (human) (UniProt Q13421); assay: competitive FACS on CHO-K1-human MSLN-2C8 cells vs Biotin-Tab131; competitor at 0.064 nM
[21] = target: human MSLN full-length protein, recombinant, on CHO-K1 or HEK293T cells (human) (UniProt Q13421); assay: competitive FACS on CHO-K1-human MSLN-2C8 cells vs Biotin-Tab142; competitor at 100 nM
[22] = target: human MSLN protein endogenously expressed on tumor cells (Hela, OVCAR3) (human) (UniProt Q13421); assay: FACS, Hela cells
[23] = target: human MSLN-R3-rFc protein (human) (UniProt Q13421); assay: ELISA, antibody 0.032 nM
[24] = target: human MSLN full-length protein, recombinant, on CHO-K1 or HEK293T cells (human) (UniProt Q13421); assay: competitive FACS on CHO-K1-human MSLN-2C8 cells vs Biotin-Tab131; competitor at 0.0128 nM
[25] = target: human MSLN full-length protein on transfected cells (CHO-K1-hMSLN clones 2C8, 2D11, 2C5; HEK293T-hMSLN clones B8, 2A4, 2A7) (human) (UniProt Q13421); assay: FACS, CHO-K1-hMSLN-2C8 cells, antibody 0.0064 nM
[26] = target: monkey MSLN full-length protein on HEK293T cells (monkey); assay: FACS, HEK293T-monkey-MSLN cells, antibody 0.8 nM
[27] = target: human MSLN full-length protein, recombinant, on CHO-K1 or HEK293T cells (human) (UniProt Q13421); assay: competitive FACS on CHO-K1-human MSLN-2C8 cells vs Biotin-Tab131; competitor at 40 nM
[28] = target: human MSLN full-length protein on transfected cells (CHO-K1-hMSLN clones 2C8, 2D11, 2C5; HEK293T-hMSLN clones B8, 2A4, 2A7) (human) (UniProt Q13421); assay: FACS, CHO-K1-hMSLN-2C8 cells, antibody 100 nM

Sequence of human MSLN full-length protein, recombinant, on CHO-K1 or HEK293T cells (human) (Q13421 other isoform, or with tags, fused parts or gaps limits assumed): as the sequence (Q13421 other isoform, or with tags, fused parts or gaps limits assumed) above

hIgG1 (antibody) was tested. Which Max MFI [1] did it give?
Its Max MFI is 137.

And the MFI of Biotin-Tab142 [2]?
Its MFI of Biotin-Tab142 is 23000.

What about the FACS signal (MFI) [3] of the same substance?
Its FACS signal (MFI) is 110.

What about the FACS signal (MFI) [4] of the same substance?
Its FACS signal (MFI) is 78.

And the MFI [4]?
The MFI was 329.

What about the FACS signal (MFI) [5] of the same substance?
The FACS signal (MFI) was 76.

And the MFI [6]?
The MFI was 65.

And the MFI of Biotin-Tab142 [7]?
The MFI of Biotin-Tab142 was 22700.

And the MFI of Biotin-Tab142 [8]?
Its MFI of Biotin-Tab142 is 44300.

What about the Max MFI [9] of the same substance?
The Max MFI was 147.

And the MFI [10]?
Its MFI is 255.

What about the FACS signal (MFI) [11] of the same substance?
The FACS signal (MFI) was 84.

What about the MFI of Biotin-Tab142 [12] of the same substance?
The MFI of Biotin-Tab142 was 24300.

And the FACS signal (MFI) [13]?
Its FACS signal (MFI) is 93.

What about the FACS signal (MFI) [14] of the same substance?
The FACS signal (MFI) was 156.

What about the MFI [15] of the same substance?
Its MFI is 74.

What about the FACS signal (MFI) [16] of the same substance?
The FACS signal (MFI) was 85.

And the MFI of Biotin-Tab142 [17]?
Its MFI of Biotin-Tab142 is 23300.

What about the FACS signal (MFI) [18] of the same substance?
Its FACS signal (MFI) is 127.

And the FACS signal (MFI) [19]?
The FACS signal (MFI) was 75.

What about the MFI of Biotin-Tab131 [20] of the same substance?
Its MFI of Biotin-Tab131 is 12500.

And the MFI of Biotin-Tab142 [21]?
The MFI of Biotin-Tab142 was 41200.

What about the Max MFI [22] of the same substance?
Its Max MFI is 75.

What about the OD450 nm [23] of the same substance?
Its OD450 nm is 0.11.

And the MFI of Biotin-Tab131 [24]?
The MFI of Biotin-Tab131 was 12600.

And the FACS signal (MFI) [25]?
Its FACS signal (MFI) is 65.

What about the FACS signal (MFI) [26] of the same substance?
Its FACS signal (MFI) is 87.

And the MFI of Biotin-Tab131 [27]?
Its MFI of Biotin-Tab131 is 12500.

What about the FACS signal (MFI) [28] of the same substance?
Its FACS signal (MFI) is 72.
